Key:
IL-2Rβ/γ on M07e cells [1] = biological target: T1, IL-2Rβ/γ on M07e cells (human, UniProt P14784 27-551; P31785 23-369); experiment: cell-based or functional assay
T1 sequence (looked up) 1: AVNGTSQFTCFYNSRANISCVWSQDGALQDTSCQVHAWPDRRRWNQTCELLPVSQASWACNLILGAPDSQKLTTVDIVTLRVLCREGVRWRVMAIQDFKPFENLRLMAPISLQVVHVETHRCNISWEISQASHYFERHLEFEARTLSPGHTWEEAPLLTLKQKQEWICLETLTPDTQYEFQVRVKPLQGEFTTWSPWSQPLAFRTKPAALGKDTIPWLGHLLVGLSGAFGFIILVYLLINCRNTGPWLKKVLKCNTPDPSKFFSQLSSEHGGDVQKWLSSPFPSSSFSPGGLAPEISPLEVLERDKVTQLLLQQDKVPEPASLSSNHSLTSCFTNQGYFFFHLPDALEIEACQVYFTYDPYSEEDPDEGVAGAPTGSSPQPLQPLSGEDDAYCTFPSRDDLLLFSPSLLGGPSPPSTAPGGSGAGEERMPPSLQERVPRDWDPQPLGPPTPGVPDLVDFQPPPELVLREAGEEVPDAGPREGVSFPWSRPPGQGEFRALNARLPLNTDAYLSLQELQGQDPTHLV
T1 sequence (looked up) 2: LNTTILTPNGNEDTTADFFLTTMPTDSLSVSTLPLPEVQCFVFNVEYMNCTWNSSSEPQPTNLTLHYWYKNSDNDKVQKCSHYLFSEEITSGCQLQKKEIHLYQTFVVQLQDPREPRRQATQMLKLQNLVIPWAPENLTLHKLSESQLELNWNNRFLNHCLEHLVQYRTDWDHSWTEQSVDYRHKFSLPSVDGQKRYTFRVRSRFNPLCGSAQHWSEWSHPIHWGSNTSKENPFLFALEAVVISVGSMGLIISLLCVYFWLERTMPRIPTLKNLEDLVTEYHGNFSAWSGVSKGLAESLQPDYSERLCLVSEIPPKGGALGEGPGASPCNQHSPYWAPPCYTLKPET

IL-2Rβ/γ on M07e cells [2] = biological target: T1, IL-2Rβ/γ on M07e cells; experiment: cell-based or functional assay; remark: listed apart in the source
IL-2Rβ/γ on M07e cells [3] = biological target: T1, IL-2Rβ/γ on M07e cells; experiment: cell-based or functional assay; remark: listed apart in the source
[4] = tested on: unstimulated CD4^+ T cells; experiment: Unstimulated T cell proliferation experiment (Ki-67, FACS); assay type: cell-based, human; conditions: 4 days
Experimental: (§1) T cells stimulated with CD3 antibodies highly express PD-1. To determine whether the PD-1-IL-2v with different IL-2 mutants described above can activate T cells among human peripheral blood mononuclear cells (PBMCs) that lowly express PD-1 and highly express PD-1, T cells were isolated from PBMCs and stimulated with a CD3 antibody. The effects of the fusion proteins described above on the proliferation of unstimulated and stimulated T cells were assessed. Unstimulated T cell proliferation experiment: The isolated T cells were counted and then plated at 5 × 10^5 cells/mL onto a 96-well plate at 200 µL/well. The test samples were serially diluted with culture medium to prepare 5× working solutions, and 50 µL of each concentration of the test samples was added to the stimulated T cells and mixed well. The plate was incubated for 4 days. After the drug treatment, the cells were washed twice with FACS buffer, and dead cells were labeled with FVD780. After flow cytometry antibody staining, cell proliferation was examined by FACS.

[5] = tested on: unstimulated CD8^+ T cells; experiment: as above; assay type: cell-based, human; conditions: 4 days
Experimental: as §1

[6] = tested on: CD4^+ T cells stimulated with the CD3 antibody; experiment: Proliferation experiment of T cells stimulated with a CD3 antibody (Ki-67, FACS); assay type: cell-based, human; conditions: 4 days
Experimental: (§2) T cells stimulated with CD3 antibodies highly express PD-1. To determine whether the PD-1-IL-2v with different IL-2 mutants described above can activate T cells among human peripheral blood mononuclear cells (PBMCs) that lowly express PD-1 and highly express PD-1, T cells were isolated from PBMCs and stimulated with a CD3 antibody. The effects of the fusion proteins described above on the proliferation of unstimulated and stimulated T cells were assessed. Proliferation experiment of T cells stimulated with a CD3 antibody: After frozen human PBMCs were thawed, T cells were obtained by isolation using a Pan T Cell Isolation Kit (Miltenyi, 130-096-535). The CD3 antibody was diluted with PBS to 0.1 µg/mL and added to a 10 cm culture dish. The dish was coated at 37 °C for 2 h and washed with PBS for later use. The T cells were plated at 2 × 10^6 cells/mL onto the 10 cm culture dish precoated with the CD3 antibody and stimulated at 37 °C with 5% CO2 for 24 h. The stimulated T cells were collected, washed, and counted, and the cell density was adjusted to 5 × 10^5 cells/mL. The cells were plated at 200 µL/well onto a 96-well plate. The test samples were serially diluted with culture medium to prepare 5× working solutions, and 50 µL of each concentration of the test samples was added to the stimulated T cells and mixed well. The plate was incubated for 4 days. After the drug treatment, the cells were washed twice with FACS buffer (PBS + 2% FBS), and dead cells were labeled with Fixable Viability Dye (eBioscience, 65-0865-14). After flow cytometry antibody staining with CD3 (BD, 565491), CD4 (BD, 558116), CD8 (BD, 565310), Ki-67 (eBioscience, 12-5698-82)), cell proliferation was examined by FACS.

[7] = tested on: CD8^+ T cells stimulated with the CD3 antibody; experiment: as above; assay type: cell-based, human; conditions: 4 days
Experimental: as §2

human PD-1 = human PD-1 (human, UniProt Q15116 25-288); experiment: cell-based or functional assay
human PD-1, sequence (Q15116 25-288 limits assumed): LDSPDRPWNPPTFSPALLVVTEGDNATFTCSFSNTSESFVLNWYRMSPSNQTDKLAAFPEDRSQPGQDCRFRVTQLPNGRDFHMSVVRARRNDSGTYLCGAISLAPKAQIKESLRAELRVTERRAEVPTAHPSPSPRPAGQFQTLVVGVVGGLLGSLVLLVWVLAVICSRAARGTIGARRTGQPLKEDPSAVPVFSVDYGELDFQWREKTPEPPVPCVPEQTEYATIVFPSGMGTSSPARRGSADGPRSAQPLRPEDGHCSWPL

[8] = biological target: Human PD-1 antigen protein (Sino Biological, 10377-H08H) (human, UniProt Q15116 25-167); experiment: SPR Biacore 8K, fusion protein captured by anti-human IgG (Fc), human PD-1 as analyte
Human PD-1 antigen protein (Sino Biological, 10377-H08H), sequence (Q15116 25-167 limits assumed): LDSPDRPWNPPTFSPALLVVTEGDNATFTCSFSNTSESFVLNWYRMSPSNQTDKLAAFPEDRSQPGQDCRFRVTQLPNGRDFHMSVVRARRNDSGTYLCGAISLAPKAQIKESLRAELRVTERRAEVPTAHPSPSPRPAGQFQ

B1: PEGylated IL-2 mutant (PEG-IL-2v) (ligand)
chain: APASSSTKKTQLQLEHLLLDLQMILQGISNYKNPKLTRMLTAKFYMPKKATELKHLQCLEEELKPLEEVLQGAQSKNFHLRPRDLISNINVIVLELKGSETTFMCEYADETATIVEFLNRWITFAQSIISTLT
modifications: PEGylated (site not stated)
- M07e proliferation, EC50 (IL-2Rβ/γ on M07e cells [1]): 20.9 nM
- M07e proliferation, Maximal fluorescence value (Max Lum) (IL-2Rβ/γ on M07e cells [1]): 4.45e+06 Lum
- M07e-hPD1 proliferation, EC50 (IL-2Rβ/γ on M07e cells [1]): 13.3 nM
- M07e-hPD1 proliferation, Maximal fluorescence value (Max Lum) (IL-2Rβ/γ on M07e cells [1]): 7.94e+06 Lum
- M07e cell proliferation activity (%) at 0.46 nM (IL-2Rβ/γ on M07e cells [2]): 0.7%
- M07e cell proliferation activity (%) at 1.4 nM (IL-2Rβ/γ on M07e cells [2]): 2.6%
- M07e cell proliferation activity (%) at 4.1 nM (IL-2Rβ/γ on M07e cells [2]): 11.2%
- M07e cell proliferation activity (%) at 12 nM (IL-2Rβ/γ on M07e cells [2]): 34.2%
- M07e cell proliferation activity (%) at 37 nM (IL-2Rβ/γ on M07e cells [2]): 68.2%
- M07e cell proliferation activity (%) at 111 nM (IL-2Rβ/γ on M07e cells [2]): 88.3%
- M07e cell proliferation activity (%) at 333 nM (IL-2Rβ/γ on M07e cells [2]): 102%
- M07e cell proliferation activity (%) at 1000 nM (IL-2Rβ/γ on M07e cells [2]): 89%
- M07e-hPD-1 cell proliferation activity (%) at 0.0001 nM (IL-2Rβ/γ on M07e cells [2]): 1.9%
- M07e-hPD-1 cell proliferation activity (%) at 0.001 nM (IL-2Rβ/γ on M07e cells [2]): 1.1%
- M07e-hPD-1 cell proliferation activity (%) at 0.01 nM (IL-2Rβ/γ on M07e cells [2]): 0.5%
- M07e-hPD-1 cell proliferation activity (%) at 0.1 nM (IL-2Rβ/γ on M07e cells [2]): 0.4%
- M07e-hPD-1 cell proliferation activity (%) at 1 nM (IL-2Rβ/γ on M07e cells [2]): 3.3%
- M07e-hPD-1 cell proliferation activity (%) at 10 nM (IL-2Rβ/γ on M07e cells [2]): 33.3%
- M07e-hPD-1 cell proliferation activity (%) at 100 nM (IL-2Rβ/γ on M07e cells [2]): 104%
- M07e-hPD-1 cell proliferation activity (%) at 1000 nM (IL-2Rβ/γ on M07e cells [2]): 100%
- M07e-hPD-1 cell proliferation ratio (%) at 0.0001 nM (IL-2Rβ/γ on M07e cells [3]): -2.2%
- M07e-hPD-1 cell proliferation ratio (%) at 0.001 nM (IL-2Rβ/γ on M07e cells [3]): -2.1%
- M07e-hPD-1 cell proliferation ratio (%) at 0.01 nM (IL-2Rβ/γ on M07e cells [3]): -2.6%
- M07e-hPD-1 cell proliferation ratio (%) at 0.1 nM (IL-2Rβ/γ on M07e cells [3]): -2.2%
- M07e-hPD-1 cell proliferation ratio (%) at 1 nM (IL-2Rβ/γ on M07e cells [3]): -0.6%
- M07e-hPD-1 cell proliferation ratio (%) at 10 nM (IL-2Rβ/γ on M07e cells [3]): 24.4%
- M07e-hPD-1 cell proliferation ratio (%) at 100 nM (IL-2Rβ/γ on M07e cells [3]): 76.7%
- M07e-hPD-1 cell proliferation ratio (%) at 1000 nM (IL-2Rβ/γ on M07e cells [3]): 89.1%

B2: PEG-IL-2v (conjugate)
chain: B1 chain
- CD4^+ Ki67^+ cells (%) ([4]; 0.001 nM): 0.29%
- CD4^+ Ki67^+ cells (%) ([4]; 0.01 nM): 1.51%
- CD4^+ Ki67^+ cells (%) ([4]; 0.1 nM): 1.38%
- CD4^+ Ki67^+ cells (%) ([4]; 1 nM): 1.77%
- CD4^+ Ki67^+ cells (%) ([4]; 10 nM): 10.2%
- CD4^+ Ki67^+ cells (%) ([4]; 100 nM): 45%
- CD8^+ Ki67^+ cells (%) ([5]; 0.001 nM): 0.22%
- CD8^+ Ki67^+ cells (%) ([5]; 0.01 nM): 0.59%
- CD8^+ Ki67^+ cells (%) ([5]; 0.1 nM): 0.29%
- CD8^+ Ki67^+ cells (%) ([5]; 1 nM): 1.54%
- CD8^+ Ki67^+ cells (%) ([5]; 10 nM): 43%
- CD8^+ Ki67^+ cells (%) ([5]; 100 nM): 87.3%
- CD4^+ Ki67^+ cells (%) ([6]; 0.001 nM): 32.9%
- CD4^+ Ki67^+ cells (%) ([6]; 0.01 nM): 34.8%
- CD4^+ Ki67^+ cells (%) ([6]; 0.1 nM): 43.3%
- CD4^+ Ki67^+ cells (%) ([6]; 1 nM): 63%
- CD4^+ Ki67^+ cells (%) ([6]; 10 nM): 73%
- CD4^+ Ki67^+ cells (%) ([6]; 100 nM): 74.7%
- CD8^+ Ki67^+ cells (%) ([7]; 0.001 nM): 55.5%
- CD8^+ Ki67^+ cells (%) ([7]; 0.01 nM): 55.5%
- CD8^+ Ki67^+ cells (%) ([7]; 0.1 nM): 67.1%
- CD8^+ Ki67^+ cells (%) ([7]; 1 nM): 76.6%
- CD8^+ Ki67^+ cells (%) ([7]; 10 nM): 82%
- CD8^+ Ki67^+ cells (%) ([7]; 100 nM): 82.5%

B3: A-N88D-M08 (Fc fusion)
chain (part 1 of 2): EVQLVESGGGLVQPGGSLRLSCAASGLTFSDYSMSWYRQAPGKGRELVAIISGSGVITHYVDSVKGRFTISRDNAKNTLYLQMRSLRAEDTAVYYCRAVSDWQDYWGQGTQVTVSS
chain (part 2 of 2): GGGGSGGGGSGGGGSAPASSSTKKTQLQLEHLLLDLQMILQGISNYKNPKLTRMLTAKFYMPKKATELKHLQCLEEELKPLEEVLQGAQSKNFHLRPRDLISDINVIVLELKGSETTFMCEYADETATIVEFLNRWITFAQSIISTLT
chain: B3 chain (part 1 of 2)
notes: also called A-N88D-M8; not shown: IgG1 hinge (C220S) + Fc Knob chain as in A-N88D; IgG1 hinge (C220S) + Fc Hole chain as in A-N88D
- M07e-hPD-1 cell proliferation ratio (%) at 0.0001 nM (human PD-1): 3.8%
- M07e-hPD-1 cell proliferation ratio (%) at 0.001 nM (human PD-1): 4.5%
- M07e-hPD-1 cell proliferation ratio (%) at 0.01 nM (human PD-1): 11.9%
- M07e-hPD-1 cell proliferation ratio (%) at 0.1 nM (human PD-1): 27.3%
- M07e-hPD-1 cell proliferation ratio (%) at 1 nM (human PD-1): 36%
- M07e-hPD-1 cell proliferation ratio (%) at 10 nM (human PD-1): 35.5%
- M07e-hPD-1 cell proliferation ratio (%) at 100 nM (human PD-1): 35.5%
- M07e-hPD-1 cell proliferation ratio (%) at 1000 nM (human PD-1): 44.2%
- Kd [8]: 12.3 nM
- koff [8]: 0.00264 s⁻¹
- kon [8]: 215000 M⁻¹ s⁻¹
